The results in this text go back to patent US20220308061A1.

For this experiment, the target named is NY-ESO-1 peptide presented in the stimulated PBMC culture. As to the kind of experiment: cell-based or functional assay.

In turn, NY-ESO TCR (clone 1G4) displayed a percent of CD8+ T cells CD137+/NGFR+ after antigen stimulation (% of CD8+ T cells) of 0.69, a percent of CD8+ T cells IFNγ+/NGFR+ after antigen stimulation (% of CD8+ T cells) of 0.47 and a percent of CD8+ T cells TNFα+/NGFR+ after antigen stimulation (% of CD8+ T cells) of 0.41.
